Assay [1] has as its target T1, human c-kit (His)6 negative control antigen (human, UniProt P10721 26-524, limits assumed).
T1 construct: Control antigen
In words: BIAcore, antigens coated on a CM5 chip, human c-kit (His)6 as negative control antigen. Here is the method: (§1) FIG. 3: Vκ and VH dAbs selected against recombinant human and mouse ASGPR proteins binding specifically to the target antigen. Antigens were coated on the surface of a CM5 BlAcore chip and protein L purified Vκ dAb DOM26m-20 (top panel) or protein A purified VH dAb DOM26h-61 (bottom panel) was passed over the chip surface at a concentration of 2.5 μM using a flow-rate of […]. In the top panel binding of dAb to (His)₆-mouse ASGPR H1 ( )or human c-kit (His)₆ negative control antigen ( ) is shown. In the bottom panel dAb binding to (His)₆-human ASGPR H1 ( )or human c-kit (His)₆ negative control antigen ( ) is shown.
(§2) Screening by BlAcore took place using dAb supernatant expressed as above diluted 1:2 with HBS-P BlAcore running buffer. Each dAb was then injected over a blank flow cell and a flow cell coated with human or mouse (His)₆-ASGPR H1 on a CM5 chip. […] All unique dAb clones were expressed in 50 ml cultures (OnEX plus carbenicillin) overnight at 37° C. and purified on protein A (VH dAbs) or protein L (Vκ dAbs). Purified dAbs were passed over a CM5 BIAcore chip coated with either human or mouse (His)₆-ASGPR H1 at 20μg/ml (FIG. 3). Those dAbs that bound specifically to (His)₆-ASGPR H1 were then analysed in the flow cytometry cell binding assay (FIG. 4).

Assay [2] addresses T2, (His)6-Mouse ASGPR H1 (mouse, UniProt P34927 61-284).
T2 construct: Expressed in HEK293E, Ni-NTA purified; coated on a CM5 chip or biotinylated and captured on a streptavidin chip; The entry includes the His tag; also called mouse (His)6-ASGPR H1; mouse (His)6-ASGPR H1 extracellular domain
T2 sequence: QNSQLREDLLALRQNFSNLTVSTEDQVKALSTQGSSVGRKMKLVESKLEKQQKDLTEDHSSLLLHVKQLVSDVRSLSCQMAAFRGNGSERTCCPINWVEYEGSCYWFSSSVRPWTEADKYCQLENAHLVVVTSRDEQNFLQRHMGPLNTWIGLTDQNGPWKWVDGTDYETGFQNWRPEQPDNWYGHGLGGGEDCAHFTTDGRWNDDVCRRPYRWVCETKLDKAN
As to the kind of experiment: BIAcore, antigen coated on a CM5 chip, dAb at 2.5 µM. As for the experimental part:
as §1, §2

Assay [3] has as its target T3, (His)6-Human ASGPR H1 Lectin Domain (human, UniProt P07306 154-291).
T3 construct: Biotinylated and immobilised on a streptavidin chip; also called human (His)6-ASGPR H1 lectin domain; human (His)6 lectin domain
T3 sequence: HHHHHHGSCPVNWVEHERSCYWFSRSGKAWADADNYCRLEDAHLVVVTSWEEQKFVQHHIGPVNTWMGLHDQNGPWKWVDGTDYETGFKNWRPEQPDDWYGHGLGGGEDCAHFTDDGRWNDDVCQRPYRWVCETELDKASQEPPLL
As to the kind of experiment: BIAcore, biotinylated antigen on a streptavidin chip, FLAG-tagged dAb, 40 µl/min. The source says: (§3) To assay for potential dAb binding activity human (His)₆-ASGPR H1 stalk domain, human (His)₆-ASGPR H1 lectin domain and mouse (His)₆-ASGPR H1 extracellular domain were biotinylated and immobilised on a biacore Streptavidin chip surface.
For orientation: Surface plasmon resonance follows binding to a sensor surface in real time, without labels.

In assay [4] the target is T4, (His)6-Human ASGPR H1 Stalk Domain (human, UniProt P07306 62-153).
T4 construct: Biotinylated and immobilised on a streptavidin chip; also called human (His)6-ASGPR H1 stalk domain; (His)6-human ASGPR H1 stalk domain residues glutamine 62-cysteine 153
T4 sequence: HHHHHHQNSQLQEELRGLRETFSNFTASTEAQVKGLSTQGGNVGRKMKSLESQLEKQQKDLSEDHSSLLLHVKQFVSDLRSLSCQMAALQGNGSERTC
As to the kind of experiment: BIAcore, biotinylated stalk domain on a streptavidin chip, flow 40 µl/min.
Text: as §3

Assay [5] deals with T5, mouse ASGPR on the murine liver cell line Hepa1c1c7 (and on mouse liver in vivo) (mouse, UniProt P34927 1-284).
T5 sequence (looked up): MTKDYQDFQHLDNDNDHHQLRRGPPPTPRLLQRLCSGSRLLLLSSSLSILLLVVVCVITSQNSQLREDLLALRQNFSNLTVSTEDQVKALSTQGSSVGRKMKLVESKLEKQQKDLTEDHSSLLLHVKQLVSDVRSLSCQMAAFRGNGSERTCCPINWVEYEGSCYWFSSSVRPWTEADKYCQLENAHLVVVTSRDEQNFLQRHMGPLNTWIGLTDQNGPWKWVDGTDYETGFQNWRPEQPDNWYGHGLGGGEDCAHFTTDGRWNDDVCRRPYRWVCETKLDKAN
In words: cell-based or functional assay.

The target in assay [6] is T2, (His)6-Mouse ASGPR H1. As to the kind of experiment: BIAcore epitope mapping, 1 µM dAb over (His)6 mouse ASGPR H1 on a CM5 chip. Here is the method:
After coating a BlAcore CM5 chip with (His)₆ mouse ASGPR H1, protein A or protein L purified dAb proteins were injected one after the other and in combination over the same antigen surface. The resulting binding RUs were determined in order to see whether the maximal binding capacity of the chip by one dAb molecule can be exceeded by simultaneously injecting a second dAb onto the same antigen surface. If so, the second dAb clearly binds a different epitope compared to the first one. 1 μM concentrations of each dAb were injected at a flow rate of […], both in single injection and co-injection experiments. If injection of the second dAb in the presence of the first dAb reduced the observed binding to the chip surface by greater than 20% (in comparison to observed binding of the second dAb to the chip surface in the absence of the first dAb) both dAbs were assumed to bind overlapping epitopes within the antigen (FIG. 6). Based on results obtained in these experiments murine ASGPR specific dAb clones could be grouped according to epitopes bound within the antigen as shown in FIG. 12.

Assay [7] deals with T6, (His)6-Human ASGPR H1 (human, UniProt P07306 62-291).
T6 construct: Expressed in HEK293E, Ni-NTA purified; coated on a CM5 chip or biotinylated and captured on a streptavidin chip; The entry includes the His tag; also called human (His)6-ASGPR H1; Human (His)6 ASGPR H1 Q62-L291
T6 sequence: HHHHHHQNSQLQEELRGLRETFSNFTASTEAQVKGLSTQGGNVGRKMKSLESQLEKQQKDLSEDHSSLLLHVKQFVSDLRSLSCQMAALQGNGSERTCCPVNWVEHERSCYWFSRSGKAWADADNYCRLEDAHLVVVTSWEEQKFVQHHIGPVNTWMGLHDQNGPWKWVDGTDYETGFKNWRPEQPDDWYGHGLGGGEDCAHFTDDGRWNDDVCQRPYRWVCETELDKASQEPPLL
In words: BIAcore, biotinylated (His)6-ASGPR H1 on a streptavidin chip, 62 nM dAb, 40 µl/min. Here is the method:
( )to human (His)₆-ASGPR H1. Biotinylated (His)₆-ASGPR H1 was immobilised on a Biacore streptavidin chip surface and 62 nM dAb passed over at a flow rate of 40 μl.min⁻¹.

Assay [8] addresses T3, (His)6-Human ASGPR H1 Lectin Domain. As to the kind of experiment: BIAcore, biotinylated antigen on a streptavidin chip, 60 nM dAb, 40 µl/min.
Assay [9] has as its target T2, (His)6-Mouse ASGPR H1. As to the kind of experiment: BIAcore, biotinylated antigen on a streptavidin chip, FLAG-tagged dAb, 40 µl/min.
Text: as §3

The target of assay [10] is T6, (His)6-Human ASGPR H1. As to the kind of experiment: BIAcore, antigen coated on a CM5 chip, dAb at 2.5 µM. As for the experimental part: as §1, §2

Positions count from the first letter of the chain named. Numbers in names are those of the source.

T1 sequence (P10721 26-524 limits assumed): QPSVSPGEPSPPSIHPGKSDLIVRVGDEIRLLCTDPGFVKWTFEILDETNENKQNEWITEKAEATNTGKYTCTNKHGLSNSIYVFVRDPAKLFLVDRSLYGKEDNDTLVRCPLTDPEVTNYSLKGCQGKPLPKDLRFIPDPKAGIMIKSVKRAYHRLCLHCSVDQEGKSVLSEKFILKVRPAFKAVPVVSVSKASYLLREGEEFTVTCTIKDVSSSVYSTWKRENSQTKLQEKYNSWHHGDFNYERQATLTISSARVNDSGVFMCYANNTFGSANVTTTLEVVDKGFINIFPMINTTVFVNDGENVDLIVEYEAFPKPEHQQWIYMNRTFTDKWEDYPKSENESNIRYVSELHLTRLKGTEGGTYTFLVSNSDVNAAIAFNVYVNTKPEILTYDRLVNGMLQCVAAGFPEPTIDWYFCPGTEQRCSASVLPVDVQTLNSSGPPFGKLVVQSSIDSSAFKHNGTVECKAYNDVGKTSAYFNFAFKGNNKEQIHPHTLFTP

B1: DOM26m-20 (other, not shown: small tags and cut ends)
VL: DIQMTQSPSSLSASVGDRVTITCRASKYIGSDLYWYQQKPGKAPKLLIGGGSRLQSGVSSRFSGSGSGTDFTLTISSLQPEDFATYYCGQKWARPLTFGQGTKVEIKR
notes: human Vκ domain antibody (dAb) selected on mouse ASGPR H1; also called Vκ dAb DOM26m-20
Take B1: the figures for the binding result in assay [1] and in assay [2] were “no binding (tested: 2.5 µM)” and “binds”, respectively.

B2: DOM26h-161-84 (other, not shown: small tags and cut ends)
VL: DIQMTQSPSSLSASVGDRVTITCRASQAIGRWLLWYQQKPGKAPKLLIGPGSRLRSGVPSRFSGSGSGTDFTLTISSLQPEDFVTYYCQQAYAWPPTFGQGTKVEIKR
For B2, the binding result in [3] is recorded as “binds”; in [4], “no binding”. Also, the “counts in the liver (percentage of injected dose) 3 hours after injection of DOTA-NHS conjugated, 111In labelled dAb in balb/c mice, against Vκ dummy” value in [5] amounted to 46 fold.

B3: DOM26m-50 (other, not shown: small tags and cut ends)
VL: DIQMTQSPSSLSASVGDRVTITCRASISIYEHLNWYQQKPGKAPTLLIWDSSGLQSGVPSRFSGSGSGTDFTLTISSLQPEDFATYYCVQHHSHPPTFGQGTKVEIKR
notes: human Vκ domain antibody (dAb) selected on mouse ASGPR H1
Take B3: in assay [6], the binding result is “binds”.

B4: DOM26h-196-61 (other, not shown: small tags and cut ends)
VH: EVQLLESGGGLVQPGGSLRLSCAASGFTFEKYAMAWVRQAPGKGLEWVSRISARGVTTYYADSVKGRFTISRDNSKNTLYLQMNSLRAEDTAVYYCAKHKRHEHTRFDSWGQGTLVTVSS
Turning to B4, the results for the binding result in [7], in [8] and in assay [4] were “binds”, “binds” and “no binding (tested: 60 nM)”, respectively. Also, in [5], the “counts in the liver (percentage of injected dose) 3 hours after injection of DOTA-NHS conjugated, 111In labelled dAb in balb/c mice, against VH dummy 2” value was around 35 fold.

B5: DOM26h-196 (other, not shown: small tags and cut ends)
VH: B4 VH with A53M, R54A, V56M, R101K, H102S, E103A
notes: human VH domain antibody (dAb)
Regarding B5, the binding result in [7] was “binds”.

B6: DOM26h-220-1 (other, not shown: small tags and cut ends)
VH: EVQLLESGGGLVQPGGSLRLSCAASGFTFEDYGMGWVRQAPGKGLEWVSAIGRNGSQTYYADSVKGRFTISRDNSKNTLYLQMNSLRAEDTAVYYCAKLRRGRGLNTFTLDYWGQGTLVTVSS
Turning to B6, the figures for the binding result in assay [9], in assay [3] and in assay [4] were “binds”, “binds” and “no binding”, respectively.

B7: DOM26h-210-2 (other, not shown: small tags and cut ends)
VH: ELQLLEFGGGLVQPGGSLRLSCTTSGFTFSRYTMGWVRQAPGKGLEWVSAIGPPGSNTYYADSVKGRFTISRDNSKNTLYLQMNSLRAEDTAVYYCAKWVMLRGRFDYWGQGTLVTVSS
For B7, the binding result in [9] is reported as “binds”; in [3] it was “binds”; in assay [4], “no binding”.

B8: DOM26h-61 (other, not shown: small tags and cut ends)
VH: EVQLLESGGGLVQPGGSLRLSCAASGFTFSTYPMHWARQAPGKGLEWVSSISPSGDSTYYADSVKGRFTISRDNSKNTLYLQMNSLRAEDTAVYYCAKNALRFDYWGQGTLVTVSS
notes: human VH domain antibody (dAb); also called VH dAb DOM26h-61
Regarding B8, the binding result in [1] was “no binding (tested: 2.5 µM)”; in assay [10] it was “binds”.

B9: DOM26m-54 (other, not shown: small tags and cut ends)
VL: DIQMTQSPSSLSASVGDRVTITCRASLNIDTDLVWYQQKPGKAPKLLIAGWSGLQSGVPSRFSGSGSGTDFTLTISSLQPEDFATYYCGQFAREPFTFGQGTKVEIKR
notes: as for B3
On to B9, for which the binding result in assay [6] is reported as “binds”.

B10: DOM26m-29 (other, not shown: small tags and cut ends)
VH: EVQLLESGGGLVQPGGSLRLSCAASGFTFEDSGMIWARQAPGKGLEWVSGIASEGSTTYYADSVKGRFTISRDNSKNTLYLQMNSLRAEDTAVYYCAKSGLSFDYWGQGTLVTVSS
notes: human VH domain antibody (dAb) selected on mouse ASGPR H1
For B10, the binding result in [6] was “binds”.

B11: DOM26m-7 (other, not shown: small tags and cut ends)
VH: EVQLLESGGGLVQPGGSLRLSCAASGFTFDDYEMGWVRQAPGKGLEWVSLISAQGRVTYYADSVKGRFTISRDNSKNTLYLQMNSLRAEDTAVYYCAKNSPSYLLNFDYWGQGTLVTVSS
notes: as for B10
As for B11, the binding result in assay [6] is given as “binds”.

B12: DOM26m-33 carrying the point mutation S116C, DOTA-Maleimide conjugated and 111In labelled (other)
VH: EVQLLESGGGLVQPGGSLRLSCAASGFTFAKYDMIWVRQAPGKGLEWVSGINHSGSRTYYADSVKGRFTISRDNSKNMLYLQMNSLRAEDTAVYYCAKSGSSFDYWGQGTLVTVSC
modifications: DOTA-Maleimide on the C-terminal cysteine (S116C), labelled with 111In
With B12, in assay [5], the “counts in the liver (percent injected dose) 3 hours after intravenous injection of 111In labelled dAb in balb/c mice, against VH dummy 2” value was found to be 4.9 fold and the “counts in the liver (percent injected dose) 3 hours after intravenous injection of 111In labelled dAb in balb/c mice, against Vκ dummy” value stood at 12.4 fold.

B13: DOM26m-58 (other, not shown: small tags and cut ends)
VL: DIQMTQSPSSLSASVGDRVTITCRASQPIRNALTWYQQKPGKAPKLLIYRTSHLQSGVPSRFSGSGSGTDFTLTISSLQPEDFATYYCQQTWTMPLTFGQGTKVEIKR
notes: as for B3
As for B13, the binding result in assay [6] is recorded as “binds”.

The values above are taken from patent publication US20130078216A1 (published 2013).
